Square brackets hold non-standard residues; d marks the D form. Ends that are not written are not given here. * marks the point of attachment. Myristoyl = CCCCCCCCCCCCCC(=O)*; pS = N[C@@H](COP(=O)(O)O)C(=O)O
B1: K94A: GSK-3β mutant, K94 replaced by alanine (protein)
chain: MSGRPRTTSFAESCKPVQQPSAFGSMKVSRDKDGSKVTTVVATPGQGPDRPQEVSYTDTKVIGNGSFGVVYQAKLCDSGELVAIKKVLQDKRFANRELQIMRKLDHCNIVRLRYFFYSSGEKKDEVYLNLVLDYVPETVYRVARHYSRAKQTLPVIYVKLYMYQLFRSLAYIHSFGICHRDIKPQNLLLDPDTAVLKLCDFGSAKQLVRGEPNVSYICSRYYRAPELIFGATDYTSSIDVWSAGCVLAELLLGQPIFPGDSGVDQLVEIIKVLGTPTREQIREMNPNYTEFKFPQIKAHPWTKDSSGTGHFTSGVRVFRPRTPPEAIALCSRLLEYTPTARLTPLEACAHSFFDELRDPNVKLPNGRDTPALFNFTTQELSSNPPLATILIPPHARIQAAASTPTNATAASDANTGDRGQTNNAASASASNST
modifications: GSK-3 beta, K94A mutant
notes: GSK-3β mutant, K94 replaced by alanine
B2: D90A: GSK-3β mutant, D90 replaced by alanine (protein)
chain: MSGRPRTTSFAESCKPVQQPSAFGSMKVSRDKDGSKVTTVVATPGQGPDRPQEVSYTDTKVIGNGSFGVVYQAKLCDSGELVAIKKVLQAKRFKNRELQIMRKLDHCNIVRLRYFFYSSGEKKDEVYLNLVLDYVPETVYRVARHYSRAKQTLPVIYVKLYMYQLFRSLAYIHSFGICHRDIKPQNLLLDPDTAVLKLCDFGSAKQLVRGEPNVSYICSRYYRAPELIFGATDYTSSIDVWSAGCVLAELLLGQPIFPGDSGVDQLVEIIKVLGTPTREQIREMNPNYTEFKFPQIKAHPWTKDSSGTGHFTSGVRVFRPRTPPEAIALCSRLLEYTPTARLTPLEACAHSFFDELRDPNVKLPNGRDTPALFNFTTQELSSNPPLATILIPPHARIQAAASTPTNATAASDANTGDRGQTNNAASASASNST
modifications: GSK-3 beta, D90A mutant
notes: GSK-3β mutant, D90 replaced by alanine
B3: R92A: GSK-3β mutant, R92 replaced by alanine (protein)
chain: MSGRPRTTSFAESCKPVQQPSAFGSMKVSRDKDGSKVTTVVATPGQGPDRPQEVSYTDTKVIGNGSFGVVYQAKLCDSGELVAIKKVLQDKAFKNRELQIMRKLDHCNIVRLRYFFYSSGEKKDEVYLNLVLDYVPETVYRVARHYSRAKQTLPVIYVKLYMYQLFRSLAYIHSFGICHRDIKPQNLLLDPDTAVLKLCDFGSAKQLVRGEPNVSYICSRYYRAPELIFGATDYTSSIDVWSAGCVLAELLLGQPIFPGDSGVDQLVEIIKVLGTPTREQIREMNPNYTEFKFPQIKAHPWTKDSSGTGHFTSGVRVFRPRTPPEAIALCSRLLEYTPTARLTPLEACAHSFFDELRDPNVKLPNGRDTPALFNFTTQELSSNPPLATILIPPHARIQAAASTPTNATAASDANTGDRGQTNNAASASASNST
modifications: GSK-3 beta, R92A mutant
notes: GSK-3β mutant, R92 replaced by alanine
B4: K91A: GSK-3β mutant, K91 replaced by alanine (protein)
chain: MSGRPRTTSFAESCKPVQQPSAFGSMKVSRDKDGSKVTTVVATPGQGPDRPQEVSYTDTKVIGNGSFGVVYQAKLCDSGELVAIKKVLQDARFKNRELQIMRKLDHCNIVRLRYFFYSSGEKKDEVYLNLVLDYVPETVYRVARHYSRAKQTLPVIYVKLYMYQLFRSLAYIHSFGICHRDIKPQNLLLDPDTAVLKLCDFGSAKQLVRGEPNVSYICSRYYRAPELIFGATDYTSSIDVWSAGCVLAELLLGQPIFPGDSGVDQLVEIIKVLGTPTREQIREMNPNYTEFKFPQIKAHPWTKDSSGTGHFTSGVRVFRPRTPPEAIALCSRLLEYTPTARLTPLEACAHSFFDELRDPNVKLPNGRDTPALFNFTTQELSSNPPLATILIPPHARIQAAASTPTNATAASDANTGDRGQTNNAASASASNST
modifications: GSK-3 beta, K91A mutant
notes: GSK-3β mutant, K91 replaced by alanine

Key:
[1] = test system: GSK-3; experiment: Inhibition of cellular GSK-3 in SH-SY5Y cells (Western blot); format: cell-based, human; conditions: 20 or 40 μM, 5 hours, FIG. 8
Procedure: In an additional assay, human neuroblastoma SH-SY5Y cells, were treated with L803-mts (as set forth in SEQ ID NO:5) or L803F-mts (as set forth in SEQ ID NO:12) (20 or 40 μM) for 5 hours. Cells were collected and lysed in ice-cold buffer G (20 mM Tris pH 7.5, 10 mM β-glycerophosphate, 10% glycerol, 1 mM EGTA, 1 mM EDTA, 50 mM NaF, 5 mM sodium pyrophosphate, 0.5 mM orthovanadate, 1 mM benzamidine, 5 μg/ml leupeptin, 25 μg/ml aprotinin, 5 μg/ml pepstatin, and 0.5% Triton X100). Equal amounts of proteins (30 μg) were subjected to gel electrophoresis, transferred to nitrocellulose membranes, and immunoblotted with the anti-β-catenin antibody or anti-phospho-HSF-1 antibody (heat shock factor-1)(ser 303). FIG. 8 presents the β-catenin levels and phosphorylation levels of HSF-1 (ser 303) as determined by Western blot analysis using specific antibodies, with non-treated cells indicated as control (Con).

[2] = target: GSK-3β (Homo sapiens, UniProt P49841)
GSK-3β, sequence (P49841 1-433 isoform P49841-2): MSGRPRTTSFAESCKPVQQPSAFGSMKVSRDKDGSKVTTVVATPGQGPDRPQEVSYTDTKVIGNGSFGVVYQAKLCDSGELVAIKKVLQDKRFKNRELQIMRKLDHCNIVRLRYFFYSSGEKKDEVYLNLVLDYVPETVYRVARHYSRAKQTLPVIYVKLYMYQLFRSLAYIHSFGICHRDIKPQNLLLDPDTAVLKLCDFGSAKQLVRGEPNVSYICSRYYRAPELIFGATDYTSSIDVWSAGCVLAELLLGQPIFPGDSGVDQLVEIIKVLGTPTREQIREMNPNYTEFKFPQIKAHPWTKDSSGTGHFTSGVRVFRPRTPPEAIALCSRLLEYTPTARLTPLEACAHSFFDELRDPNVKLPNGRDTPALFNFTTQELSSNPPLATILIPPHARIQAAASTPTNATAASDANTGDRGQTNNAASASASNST
Procedure: (§1) The GSK-3β proteins (WT or mutants) were incubated with indicated substrate in a reaction mixture (50 mM Tris-HCl, pH 7.3, 10 mM magnesium acetate, and 0.01% β-mercaptoethanol) together with 100 μM ^32P[γ-ATP] (0.5 μCi/assay) for 15 minutes. Reactions were stopped by spotting on p81 paper (Whatman) washed with phosphoric acid, and counted for radioactivity as previously described [Ilouz et al. (2006) supra]. In assays from cells overexpressing GSK-3 proteins, the activity of the endogenous GSK-3 that was determined in cells transfected with the pCMV4 vector was subtracted from the activity values obtained for WT and mutants.
Purified GSK-3β was subjected to in vitro kinase assays using pIRS-1, p9CREB, and pGS-1 substrate in the presence or absence of L803-mts (100 μM).

[3] = test system: GSK-3β mutants Q89A, N95A, R92A, K94A, F93Y and TM (91-93); experiment: In vitro kinase assay, inhibition of other GSK-3β mutants; format: biochemical, human; conditions: data not shown
Procedure: (§2) HEK-293 cells were grown in Dulbecco's Modified Eagle's Medium (DMEM), supplemented with 10% fetal calf serum (FCS), 2 mM glutamine, 100 units/ml penicillin, and 100 μg/ml streptomycin. HEK-293 cells were transiently transfected with indicated constructs, using calcium phosphate method as described [Ilouz et al. (2006) supra]. Cells were lysed in ice-cold buffer G (20 mM Tris-HCl, pH 7.5, 10 mM β-glycerophosphate, 10% glycerol, 1 mM EGTA, 1 mM EDTA, 50 mM NaF, 5 mM sodium pyrophosphate, 0.5 mM orthovanadate, 1 mM benzamidine, 10 μg/ml leupeptin, 5 μg/ml aprotinin, 1 μg/ml pepstatin, and 0.5% Triton X100). Cell extracts were centrifuged for 30 minutes at 15,000×g. […]
as §1, with “(0.5 μCi/assay) for 15 minutes.” left out, “mutants. […]” for “mutants.”

[4] = target: T1, GSK-3β F93A mutant (Homo sapiens, UniProt P49841, F93A); experiment: In vitro kinase assay, inhibition of the F93A mutant; format: biochemical; conditions: FIGS. 2B, 2C
T1 construct: made in house; host or cells: HEK-293 (transient transfection, pCMV4; partial purification on DE-52)
T1 sequence (P49841 1-433 isoform P49841-2 F93A): as the sequence (P49841 1-433 isoform P49841-2) above, with F93A counted along it
Procedure: as §2
as §1, with “(0.5 μCi/assay) for 15 minutes.” left out, “mutants. […]” for “mutants.”

[5] = test system: pIRS-1; experiment: In vitro kinase assay of GSK-3β mutants with substrate pIRS-1; format: biochemical; conditions: mean ± SEM; WT set to 100%
Procedure: (§3) HEK-293 cells were grown in Dulbecco's Modified Eagle's Medium (DMEM), supplemented with 10% fetal calf serum (FCS), 2 mM glutamine, 100 units/ml penicillin, and 100 μg/ml streptomycin. HEK-293 cells were transiently transfected with indicated constructs, using calcium phosphate method as described [Ilouz et al. (2006) supra]. Cells were lysed in ice-cold buffer G (20 mM Tris-HCl, pH 7.5, 10 mM β-glycerophosphate, 10% glycerol, 1 mM EGTA, 1 mM EDTA, 50 mM NaF, 5 mM sodium pyrophosphate, 0.5 mM orthovanadate, 1 mM benzamidine, 10 μg/ml leupeptin, 5 μg/ml aprotinin, 1 μg/ml pepstatin, and 0.5% Triton X100). Cell extracts were centrifuged for 30 minutes at 15,000×g. Supernatants were collected, and equal amounts of proteins were boiled with SDS sample buffer and subjected to gel electrophoresis (7.5-12% polyacrylamide gel), transferred to nitrocellulose membranes, and immunoblotted with indicated antibodies. For partial purification, cells were lysed in buffer H (20 mM Tris, pH 7.3, 1 mM EGTA, 1 mM EDTA, 1 mM orthovanadate, 25 μg/ml leupeptin, 25 μg/ml aprotinin, and 25 μg/ml pepstatin A, 500 nM microcystine LR, and 0.25% Triton X100). The lysates were centrifuged at 15,000×g. The resulting supernatants were passed through DE-52 (Whatman, Maidstone, England) mini-columns that were equilibrated with buffer H. GSK-3β proteins were eluted with the same buffer containing 0.02 M NaCl. Equal amounts of proteins were used for in vitro kinase assays.
as §1
(§4) The GSK-3β mutants were partially purified by ion exchange chromatography, and their abilities to phosphorylate peptide substrates were tested in in vitro kinase assays. The substrates were: pIRS-1, p9CREB, and pGS-1, phosphorylated peptides derived from the insulin receptor substrate-1 (IRS-1), cAMP responsive element binding protein (CREB), and glycogen synthase, respectively.

[6] = test system: p9CREB; experiment: In vitro kinase assay of GSK-3β mutants with substrate p9CREB; format: biochemical; conditions: mean ± SEM; WT set to 100%
Procedure: as §3, §1, §4

[7] = test system: pGS-1; experiment: In vitro kinase assay of GSK-3β mutants with substrate pGS-1; format: biochemical; conditions: mean ± SEM; WT set to 100%
Procedure: as §3, §1, §4

Row | Molecule | Substrate phosphorylation (% of WT GSK-3β), pIRS-1 [5] | Substrate phosphorylation (% of WT GSK-3β), p9CREB [6] | Substrate phosphorylation (% of WT GSK-3β), pGS-1 [7] | also measured
1 | Myristic-Gly-Lys-Glu-Ala-Pro-Pro-Ala-Pro-Pro-Gln-phosphorylated Ser-Pro-Phe (Myristoyl-GKEAPPAPPQ[pS]PF) [L803F-mts] |  |  |  | phosphorylation levels of HSF-1 (serine 303) [1]: reduced the phosphorylation levels; β-catenin levels [1]: elevation in β-catenin levels
2 | Lys-Glu-Ala-Pro-Pro-Ala-Pro-Pro-Gln-phosphorylated Ser-Pro-Phe [L803F] |  |  |  | inhibition of substrate phosphorylation at increasing concentrations, compared to L803 ([2]; FIG. 7): improved activity
3 | L803-mts: L803 in which myristic acid was attached to its N-terminal; cell permeable variant (Myristoyl-GKEAPPAPPQ[pS]P) |  |  |  | competition with substrates pIRS-1, p9CREB, pGS-1 ([2]; purified GSK-3β, 100 μM, FIG. 2A): competes with various substrates; inhibition of other GSK-3β mutants [3]: inhibit all other mutants; inhibition of substrate phosphorylation by F93A [4]: did not inhibit
4 | KEAPPAPPQS(p)P (KEAPPAPPQ[pS]P) [L803] |  |  |  | inhibition of other GSK-3β mutants [3]: inhibited all other mutants; inhibition of substrate phosphorylation by F93A [4]: did not inhibit
5 | B1 | 52 ± 19 % of WTGSK-3β | 71 ± 4 % of WTGSK-3β | 19 ± 14 % of WTGSK-3β | 
6 | B2 | 88 ± 15 % of WTGSK-3β | 92 ± 21 % of WTGSK-3β | 83 ± 2 % of WTGSK-3β | 
7 | B3 | 60 ± 3 % of WTGSK-3β | 49 ± 19 % of WTGSK-3β | 41 ± 14 % of WTGSK-3β | 
8 | B4 | 140 ± 18 % of WTGSK-3β | 161 ± 5 % of WTGSK-3β | 119 ± 5 % of WTGSK-3β | 

— patent US9688719B2, “Glycogen synthase kinase-3 inhibitors” (Ramot at Tel-Aviv University Ltd., priority 2011, dated 2017)
